Data on three molecules can be found in paper PMC2755582 (Journal of molecular biology, 2009).

Test [1] deals with Uroplakin Ia (Mus musculus) (UniProt Q9D132). As to conditions: cited from earlier work.
The target of another test is T1, uroplakin IIIa (mouse, UniProt Q9JKX8 19-287).
T1 sequence (looked up): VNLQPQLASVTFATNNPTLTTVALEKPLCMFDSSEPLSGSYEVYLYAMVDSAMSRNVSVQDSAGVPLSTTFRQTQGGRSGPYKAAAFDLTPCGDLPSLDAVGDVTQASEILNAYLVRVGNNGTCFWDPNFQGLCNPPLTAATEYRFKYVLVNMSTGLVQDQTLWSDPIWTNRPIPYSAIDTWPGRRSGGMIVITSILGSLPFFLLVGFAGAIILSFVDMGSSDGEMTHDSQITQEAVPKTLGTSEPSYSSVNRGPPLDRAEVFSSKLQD
Put plainly: cryo-EM structure.

The target of the next test is T2, uroplakin Ia (mouse, UniProt Q9D132 1-257, high mannose glycan at its single glycosylation site).
T2 sequence (looked up): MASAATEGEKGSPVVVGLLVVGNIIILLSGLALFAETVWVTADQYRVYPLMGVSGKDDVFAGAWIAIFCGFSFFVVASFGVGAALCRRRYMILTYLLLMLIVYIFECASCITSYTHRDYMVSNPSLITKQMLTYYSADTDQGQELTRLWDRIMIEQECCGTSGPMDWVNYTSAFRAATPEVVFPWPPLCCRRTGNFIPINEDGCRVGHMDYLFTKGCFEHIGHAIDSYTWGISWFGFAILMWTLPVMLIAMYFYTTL
Put plainly: cryo-EM structure.

The Kd is a measure of binding affinity in units of concentration.

For the molecule FimH (from UniProt P08191), in test [1], the dissociation constant Kd is 100 nM.

B1: uroplakin Ib (natural protein, mouse, UniProt Q9Z2C6 1-260, looked up)
chain: MAKDDSTVRCFQGLLIFGHVIVGMCGIALTAECIFFVSDQHSLYPLLEATNNDDIFGAAWIGMFVGICLFCLSVLAIVGIMKSNRKILLAYFIMMFIVYGFEVASCITAATQRDFFTTNLFLKQMLMRYQNNSPPTNDDEWKNNGVTKTWDRLMLQDHCCGVNGPSDWQKYTSAFRVENNDADYPWPRQCCVMDKLKEPLNLDACKLGVPGYYHSQGCYELISGPMDRHAWGVAWFGFAILCWTFWVLLGTMFYWSRIEY
B1: in the test with uroplakin IIIa, the binding result is listed as “binds”.

B2: uroplakin II (natural protein, mouse, UniProt P38575 85-184, looked up)
chain: ELVSVVDSGSGYTVTRLSAYQVTNLTPGTKYYISYRVQKGTSTESSPETPMSTLPRKNMESIGLGMARTGGMVVITVLLSVAMFLLVVGLIVALHWDARK
In the case of B2, the binding result with uroplakin Ia was “binds”.
